# Measurements from paper PMC5706989 (Molecular Biology of the Cell, 2017).
# Experiments:
# [1] = target: the molecule itself; test: two-colour scanning fluorescence
# [2] = target: the molecule itself; test: two-colour scanning fluorescence; remark: listed apart in the source
# [3] = target: the molecule itself; test: one-colour scanning fluorescence correlation spectroscopy
# [4] = target: the molecule itself; test: two-colour scanning fluorescence; remark: listed apart in the source
# [5] = target: the molecule itself; test: two-colour scanning fluorescence; remark: listed apart in the source
# [6] = target: the molecule itself; test: one-colour scanning fluorescence correlation spectroscopy; remark: listed apart in the source
protein,measurement,setting,value
"APLP1–yellow fluorescent protein (APLP1-YFP) (natural protein, UniProt P51693 39-650, looked up) SLAGGSPGAAEAPGSAQVAGLCGRLTLHRDLRTGRWEPDPQRSRRCLRDPQRVLEYCRQMYPELQIARVEQATQAIPMERWCGGSRSGSCAHPHHQVVPFRCLPGEFVSEALLVPEGCRFLHQERMDQCESSTRRHQEAQEACSSQGLILHGSGMLLPCGSDRFRGVEYVCCPPPGTPDPSGTAVGDPSTRSWPPGSRVEGAEDEEEEESFPQPVDDYFVEPPQAEEEEETVPPPSSHTLAVVGKVTPTPRPTDGVDIYFGMPGEISEHEGFLRAKMDLEERRMRQINEVMREWAMADNQSKNLPKADRQALNEHFQSILQTLEEQVSGERQRLVETHATRVIALINDQRRAALEGFLAALQADPPQAERVLLALRRYLRAEQKEQRHTLRHYQHVAAVDPEKAQQMRFQVHTHLQVIEERVNQSLGLLDQNPHLAQELRPQIQELLHSEHLGPSELEAPAPGGSSEDKGGLQPPDSKDDTPMTLPKGSTEQDAASPEKEKMNPLEQYERKVNASVPRGFPFHSSEIQRDELAPAGTGVSREAVSGLLIMGAGGGSLIVLSMLLLRRKKPYGAISHGVVEVDPMLTLEEQQLRELQRHGYENPTYRFLEERP",stoichiometry N,[1],1.8
same,stoichiometry N,[2],21
same,stoichiometry N,[3],1.9
same,stoichiometry N,[4],6
same,stoichiometry N,[5],3
same,stoichiometry N,[6],2
